Columns and labels:
Format in all cases: biochemical, Streptomyces coelicolor
purified protein [1] = substrate: CC(=O)Oc1ccc([N+](=O)[O-])cc1; test: purified protein; conditions: 50 mM Tris-HCl pH 8.5, 0.1% Triton X-100, 35°C, fitted below substrate-inhibiting concentrations
purified protein [2] = substrate: CCCC(=O)Oc1ccc([N+](=O)[O-])cc1; test: purified protein; conditions: 50 mM Tris-HCl pH 8.5, 0.1% Triton X-100, 35°C, fitted below substrate-inhibiting concentrations
purified protein [3] = substrate: CCCCC(=O)Oc1ccc([N+](=O)[O-])cc1; test: purified protein; conditions: 50 mM Tris-HCl pH 8.5, 0.1% Triton X-100, 35°C, fitted below substrate-inhibiting concentrations
purified protein [4] = substrate: CCCCCC(=O)Oc1ccc([N+](=O)[O-])cc1; test: purified protein; conditions: 50 mM Tris-HCl pH 8.5, 0.1% Triton X-100, 35°C, fitted below substrate-inhibiting concentrations
purified protein [5] = substrate: CCCCCCCC(=O)Oc1ccc([N+](=O)[O-])cc1; test: purified protein; conditions: 50 mM Tris-HCl pH 8.5, 0.1% Triton X-100, 35°C, fitted below substrate-inhibiting concentrations
[6] = substrate: CC(=O)OCC(COC(C)=O)OC(C)=O; test: pH-stat titration of released fatty acid; conditions: 5 mM Tris-HCl pH 8.5, 1% arabic gum emulsion, 35°C
Source text: (§1) pH-stat titration of released fatty acid on EstC

[7] = substrate: CCCC(=O)OCC(COC(=O)CCC)OC(=O)CCC; test: pH-stat titration of released fatty acid; conditions: 5 mM Tris-HCl pH 8.5, 1% arabic gum emulsion, 35°C
Source text: as §1

B1: EstC (Streptomyces coelicolor A3(2)) (protein)
chain: MSRNAAFSPPPSARAYRLRTARGEFAVVDSPAAAGVAPRGVVMMLPGFTGSKEDFTLLHRPLGARGYRTVAVDGRGQYESDGPEHDESAYARPELARDVLAQAAALGTRVHLVGHSLGGQIARAAVLLDPAPFLSLTLMSSGPARISESQRQRVKLLRDALDTMTMAEVWEVMQAMGPPEEAGAPAPAHGPEDRVRLRDRWLGTRPAQLLATGGQLCTEPDRVAELAAVPLPFHVLSGTYDDTWPVPLLDEMALRLDARRTVVAGAEHSPNTDQPLPTARALADFWDDHPVPPRPYVR
notes: full-length ORF, no signal peptide, N-terminal His-tag (pET16b) kept, E. coli BL21(DE3), IMAC; 34665 Da with tag without initiator Met
Km (purified protein [1]): 2900 ± 800 µM
kcat (purified protein [1]): 451 ± 10 s⁻¹
kcat/Km (purified protein [1]): 156000 ± 41000 M⁻¹ s⁻¹
Km (purified protein [2]): 840 ± 50 µM
kcat (purified protein [2]): 124 ± 2 s⁻¹
kcat/Km (purified protein [2]): 148000 ± 10000 M⁻¹ s⁻¹
Km (purified protein [3]): 270 ± 30 µM
kcat (purified protein [3]): 199 ± 6 s⁻¹
kcat/Km (purified protein [3]): 737000 ± 77000 M⁻¹ s⁻¹
Km (purified protein [4]): 71 ± 4 µM
kcat (purified protein [4]): 41 ± 1 s⁻¹
kcat/Km (purified protein [4]): 578000 ± 36000 M⁻¹ s⁻¹
Km (purified protein [5]): 110 ± 18 µM
kcat (purified protein [5]): 58 ± 3 s⁻¹
kcat/Km (purified protein [5]): 527000 ± 90000 M⁻¹ s⁻¹
Km [6]: 90000 ± 1000 µM
kcat [6]: 151 ± 2 s⁻¹
kcat/Km [6]: 1700 ± 30 M⁻¹ s⁻¹
Km [7]: 620 ± 300 µM
kcat [7]: 14 ± 1 s⁻¹
kcat/Km [7]: 23000 ± 12000 M⁻¹ s⁻¹

Reference: paper PMC3292560, “Isolation and Characterization of EstC, a New Cold-Active Esterase from Streptomyces coelicolor A3(2)” (PLoS ONE, 2012)
